# Patent US20110195482
# Assays:
# [1] = system: fibrin of the fibrin plate (fibrinogen converted with 40 units of thrombin)
# [2] = target: prothrombin (Sigma), a human blood coagulation factor (UniProt P00734)
# [3] = target: fibrinogen (MP Biomedicals), a human fibrin precursor (UniProt P02671)
substance,measurement,setting,value
"serine protease present in the venom of Bombus ignitus, activated form (Bi-VSP)","fibrin plate assay, fibrinolytic activity",[1],white zones for the fibirnolysis were formed according to each different concentration
same,"human prothrombin activation by Bi-VSP, SDS-PAGE time course",[2],prothrombin started to convert into an activated form of thrombin 5 min after the reaction
same,"human fibrinogen hydrolysis by Bi-VSP, SDS-PAGE time course (Aα chain)",[3],Aα chain was completely hydrolyzed within 5 min after the reaction
same,"human fibrinogen hydrolysis by Bi-VSP, SDS-PAGE time course (Bβ and γ chains)",[3],Bβ and γ chains were completely hydrolyzed within 60 min
